Source: paper doi:10.1101/2024.04.26.590571

Target: NB-protein (BchN-BchB α2β2 heterotetramer), electron acceptor component of Rhodobacter sphaeroides DPOR (Rhodobacter sphaeroides)
Experiment: cryo-EM structure

Sequence of L-protein (BchL homodimer), electron donor component of Rhodobacter sphaeroides DPOR (Q9RFD6 whole entry): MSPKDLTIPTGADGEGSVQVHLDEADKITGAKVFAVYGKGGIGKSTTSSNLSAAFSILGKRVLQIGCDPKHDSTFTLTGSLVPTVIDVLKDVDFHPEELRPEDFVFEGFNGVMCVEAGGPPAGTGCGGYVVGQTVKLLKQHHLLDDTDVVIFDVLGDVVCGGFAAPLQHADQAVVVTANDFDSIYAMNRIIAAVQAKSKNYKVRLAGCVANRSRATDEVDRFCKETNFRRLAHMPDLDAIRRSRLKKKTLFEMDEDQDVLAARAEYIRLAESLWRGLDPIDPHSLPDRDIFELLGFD

## L-protein (BchL homodimer), electron donor component of Rhodobacter sphaeroides DPOR (from UniProt Q9RFD6 1-297) (enzyme)
  stoichiometry N (L-protein dimer per NB-protein tetramer): 1
  stoichiometry N (L-protein dimers per NB-protein tetramer): 2
